Data reported in US8329178B2.

Legend:
Assay in all cases: FACS, 293T cells expressing CXCR4 variants
[1] = target: CXCR2/CXCR4 chimera 4442 (human) (UniProt P61073)
[2] = target: ΔN25-CXCR4 (human) (UniProt P61073)
[3] = target: CXCR2/CXCR4 chimera 2444b (human) (UniProt P61073)
[4] = target: ΔN31-CXCR4 (human) (UniProt P61073)
[5] = target: human CXCR4 (wild type) (human) (UniProt P61073)
[6] = target: CXCR2/CXCR4 chimera 2442 (human) (UniProt P61073)

## murine monoclonal antibody 12G5
[1]
  binding to cells expressing the variant (+%): 103%
[2]
  binding to cells expressing the variant (+%): 69.2%
[3]
  binding to cells expressing the variant (+%): 70.1%
[4]
  binding to cells expressing the variant (+%): 55.4%
[5]
  binding to cells expressing the variant (+%): 100%
[6]
  binding to cells expressing the variant (+%): 85.8%
